Reference: US20250223342A1 (ARGENX, published 2025)

Legend:
human serum albumin [1] = target: T1, human serum albumin (human, UniProt P02768 25-609); experiment: SPR (Biacore), VHH clone, pH 5.5
T1 construct: also called HSA

human serum albumin [2] = target: T1, human serum albumin; experiment: SPR (Biacore), off-rate pH 7.4 over pH 5.5
human serum albumin [3] = target: T1, human serum albumin; experiment: SPR (Biacore), VHH clone, pH 7.4
[4] = target: T2, isolated DII of serum albumin (UniProt P02768 211-403, limits assumed); experiment: DII binder column of the clone screening
T2 construct: domain: DII

[5] = target: T3, cynomolgus monkey serum albumin (cynomolgus monkey, UniProt A2V9Z4 25-608); experiment: SPR (Biacore 3000), albumin on chip, Fc-ABDEG fusion
T3 construct: also called cyno albumin; CSA

[6] = target: T3, cynomolgus monkey serum albumin; experiment: species reactivity, screening by ELISA and Biacore
human serum albumin [7] = target: T1, human serum albumin; experiment: SPR (Biacore 3000), HSA on chip, Fc-ABDEG fusion, ratio of R0
human serum albumin [8] = target: T1, human serum albumin; experiment: SPR (Biacore 3000), HSA on chip, Fc-ABDEG fusion, pH 5.5
[9] = target: T3, cynomolgus monkey serum albumin; experiment: SPR (Biacore 3000), cyno albumin on chip, Fc-ABDEG fusion, pH 5.5
human serum albumin [10] = target: T1, human serum albumin; experiment: SPR (Biacore 3000), HSA on chip, Fc-ABDEG fusion, pH 7.4
[11] = target: T3, cynomolgus monkey serum albumin; experiment: SPR (Biacore 3000), cyno albumin on chip, Fc-ABDEG fusion, ratio of R0
[12] = target: T3, cynomolgus monkey serum albumin; experiment: SPR (Biacore 3000), cyno albumin on chip, Fc-ABDEG fusion, pH 7.4

Binder	Kd (human serum albumin [1])	koff (human serum albumin [1])	Ratio Kd (human serum albumin [2])	koff (human serum albumin [3])	binding result [4]	binding result [5]	binding result [6]	R0 5.5/7.4 (human serum albumin [7])	R0 pH 5.5 (human serum albumin [8])	R0 pH 5.5 [9]	R0 pH 7.4 (human serum albumin [10])	R0 5.5/7.4 [11]	R0 pH 7.4 [12]
2C10 (VHH) VHH: QLQLVESGGGLVQAGGSLRLSCAASGRTFSSYAMGWFRQAPGKEREFVAVISWSGGSTYYADSVKGRFTISGDNAKNTVYLQMNSLKPEDTAVYYCATEGPKWEPYNGIYSPADFGSWGQGTQVTVSS	49.3 nM	0.0045 s⁻¹	1.3	0.0056 s⁻¹	no binding								
2H11-v3 fused at the C-terminus of Fc-ABDEG (two-armed Fc-ABDEG-20GS-Cterm fusion) (Fc fusion, not shown: a dimerising Fc or GST; large carriers; small tags and cut ends) VHH: ELQVVESGGGLVQAGGSLRLSCAASGRTFRSNTMGWFRQAPGKEREFVAAITWSGGTTYYADSVKGRFAISGDNAKNTVYLQMNSLKPEDTAVYYCAAEGAKWEPWNGIYHPADFGSWGQGTQVTVSS						no binding							
2H11-v8 fused at the C-terminus of Fc-ABDEG (two-armed Fc-ABDEG-20GS-Cterm fusion) (Fc fusion, not shown: a dimerising Fc or GST; small tags and cut ends) VHH: ELQVVESGGGLVQAGGSLRLSCAASGRTFRSNTMGWFRQAPGKEREFVAAITWSGGTTYYADSVKGRFAISGDNAKNTVYLQMNSLKPEDTAVYYCAAEGPKWEPANGIYHPADFGSWGQGTQVTVSS						no binding							
1E04 (VHH) VHH: QLQLVESGGGLVQTGGSLRLSCAASGRTFSNYNAGWFRQVPGKEPEFVAAINWSGGTTYYADSVKGRFTISRDNAKNTVYLQMNSLKPEDTAVYYCAADPDWSILNPREYDYWGQGTRVTVSS	55.2 nM	0.0026 s⁻¹	2.1	0.0054 s⁻¹	no binding		binds						
2B03 (VHH) VHH: QLQLVESGGGLVQAGGSLRLSCAASGRAISSYVMAWFRQAPGKEREFVTSINWSGGSTYYAHSVKGRFTISRDNAKNTVYLQMNTLKPEDTAVYYCAADLYGLGYEVMSYDYWGQGTQVTVSS	16.6 nM	0.0029 s⁻¹	8.7	0.025 s⁻¹	no binding		binds						
4G12 (VHH) VHH: QLQLVESGGGLVQAGGSLRLSCVASGRSFSTYGMGWFRQAPGAEREFAAAINWKGDRYYADSVKGRFTISRDNAKNTVFLEMNSLKPEDTGVYYCAADSDGSAFSRRLEYDYWGQGTQVTVSS	12.4 nM	0.0019 s⁻¹	1.8	0.0033 s⁻¹	no binding		binds						
2H11 (VHH, also called 2H11 parental (VHH)) VHH: ELQVVESGGGLVQAGGSLRLSCAASGRTFRSNTMGWFRQAPGKEREFVAAITWSGGTTYYADSVKGRFAISGDNAKNTVYLQMNSLKPEDTAVYYCAAEGPKWEPWNGIYHPADFGSWGQGTQVTVSS	6.84 nM	0.00063 s⁻¹	81.9	0.052 s⁻¹									
11C03 CDR1-V2 fused at the C-terminus of Fc-ABDEG (Fc fusion, not shown: a dimerising Fc or GST; small tags and cut ends) QLQVVESGGGLVQAGGSLRLSCAASERTFVAAPMGWFRQAPEKEREFVAGISWFAGATTDYADSVEGRFTISRDNAKNTAYLQMNNLKPEDTAVYYCAISHQLPGGRPGRDMDSYSYWGHGTQVTVSS								19	108 RU	37.8 RU	5.82 RU	17.9	2.11 RU
11C03 CDR2-V10 fused at the C-terminus of Fc-ABDEG (Fc fusion, not shown: a dimerising Fc or GST; small tags and cut ends) QLQVVESGGGLVQAGGSLRLSCAASERTFVAYPMGWFRQAPEKEREFVAGISWFAGATADYADSVEGRFTISRDNAKNTAYLQMNNLKPEDTAVYYCAISHQLPGGRPGRDMDSYSYWGHGTQVTVSS								16	136 RU	105 RU	8.6 RU	18.6	5.65 RU
11C03 CDR2-V3 fused at the C-terminus of Fc-ABDEG (Fc fusion, not shown: a dimerising Fc or GST; small tags and cut ends) QLQVVESGGGLVQAGGSLRLSCAASERTFVAYPMGWFRQAPEKEREFVAGIAWFAGATTDYADSVEGRFTISRDNAKNTAYLQMNNLKPEDTAVYYCAISHQLPGGRPGRDMDSYSYWGHGTQVTVSS								28	68.5 RU	54.2 RU	2.4 RU	20.8	2.6 RU
11C03 CDR2-V7 fused at the C-terminus of Fc-ABDEG (Fc fusion, not shown: a dimerising Fc or GST; small tags and cut ends) QLQVVESGGGLVQAGGSLRLSCAASERTFVAYPMGWFRQAPEKEREFVAGISWFAAATTDYADSVEGRFTISRDNAKNTAYLQMNNLKPEDTAVYYCAISHQLPGGRPGRDMDSYSYWGHGTQVTVSS								4	4.57 RU	0 RU	1.12 RU		1.09 RU
11C03 CDR2-V12 fused at the C-terminus of Fc-ABDEG (Fc fusion, not shown: a dimerising Fc or GST; small tags and cut ends) QLQVVESGGGLVQAGGSLRLSCAASERTFVAYPMGWFRQAPEKEREFVAGISWFAGATTDAADSVEGRFTISRDNAKNTAYLQMNNLKPEDTAVYYCAISHQLPGGRPGRDMDSYSYWGHGTQVTVSS								26	38.7 RU	26 RU	1.5 RU	19.3	1.35 RU
11C03 CDR2-V5 fused at the C-terminus of Fc-ABDEG (Fc fusion, not shown: a dimerising Fc or GST; small tags and cut ends) QLQVVESGGGLVQAGGSLRLSCAASERTFVAYPMGWFRQAPEKEREFVAGISWAAGATTDYADSVEGRFTISRDNAKNTAYLQMNNLKPEDTAVYYCAISHQLPGGRPGRDMDSYSYWGHGTQVTVSS								12	12.3 RU	0 RU	1.06 RU		1.1 RU
11C03 CDR1-V3 fused at the C-terminus of Fc-ABDEG (Fc fusion, not shown: a dimerising Fc or GST; small tags and cut ends) QLQVVESGGGLVQAGGSLRLSCAASERTFVAYAMGWFRQAPEKEREFVAGISWFAGATTDYADSVEGRFTISRDNAKNTAYLQMNNLKPEDTAVYYCAISHQLPGGRPGRDMDSYSYWGHGTQVTVSS								21	109 RU	103 RU	5.1 RU	19.8	5.2 RU
11C03 CDR2-V2 fused at the C-terminus of Fc-ABDEG (Fc fusion, not shown: a dimerising Fc or GST; small tags and cut ends) QLQVVESGGGLVQAGGSLRLSCAASERTFVAYPMGWFRQAPEKEREFVAGASWFAGATTDYADSVEGRFTISRDNAKNTAYLQMNNLKPEDTAVYYCAISHQLPGGRPGRDMDSYSYWGHGTQVTVSS								12	15.1 RU	5.22 RU	1.22 RU	4.35	1.2 RU
11C03 CDR2-V4 fused at the C-terminus of Fc-ABDEG (Fc fusion, not shown: a dimerising Fc or GST; small tags and cut ends) QLQVVESGGGLVQAGGSLRLSCAASERTFVAYPMGWFRQAPEKEREFVAGISAFAGATTDYADSVEGRFTISRDNAKNTAYLQMNNLKPEDTAVYYCAISHQLPGGRPGRDMDSYSYWGHGTQVTVSS								15	12.3 RU	0 RU	0.826 RU		2.77 RU
2A10 (VHH) VHH: EVQLVESGGGLVQAGGSLRLSCAASGRTFSSYAMGWFRQAPGKEREFVATINWSGGSTYYADSVKGRFTISRDNAKNTVYLQMNSLKPEDTAVYYCAADLYGPGFVLSMEYDYWGQGTQVTVSS	96.9 nM	0.0034 s⁻¹	3.3	0.011 s⁻¹	no binding		binds						
